T1: recombinant human β-Klotho (human, UniProt Q86Z14 53-996, limits assumed, biotinylated in the AlphaScreen assays (site not stated))
T1 construct: also called rhβ-klotho; huβKlotho-His
T1 sequence: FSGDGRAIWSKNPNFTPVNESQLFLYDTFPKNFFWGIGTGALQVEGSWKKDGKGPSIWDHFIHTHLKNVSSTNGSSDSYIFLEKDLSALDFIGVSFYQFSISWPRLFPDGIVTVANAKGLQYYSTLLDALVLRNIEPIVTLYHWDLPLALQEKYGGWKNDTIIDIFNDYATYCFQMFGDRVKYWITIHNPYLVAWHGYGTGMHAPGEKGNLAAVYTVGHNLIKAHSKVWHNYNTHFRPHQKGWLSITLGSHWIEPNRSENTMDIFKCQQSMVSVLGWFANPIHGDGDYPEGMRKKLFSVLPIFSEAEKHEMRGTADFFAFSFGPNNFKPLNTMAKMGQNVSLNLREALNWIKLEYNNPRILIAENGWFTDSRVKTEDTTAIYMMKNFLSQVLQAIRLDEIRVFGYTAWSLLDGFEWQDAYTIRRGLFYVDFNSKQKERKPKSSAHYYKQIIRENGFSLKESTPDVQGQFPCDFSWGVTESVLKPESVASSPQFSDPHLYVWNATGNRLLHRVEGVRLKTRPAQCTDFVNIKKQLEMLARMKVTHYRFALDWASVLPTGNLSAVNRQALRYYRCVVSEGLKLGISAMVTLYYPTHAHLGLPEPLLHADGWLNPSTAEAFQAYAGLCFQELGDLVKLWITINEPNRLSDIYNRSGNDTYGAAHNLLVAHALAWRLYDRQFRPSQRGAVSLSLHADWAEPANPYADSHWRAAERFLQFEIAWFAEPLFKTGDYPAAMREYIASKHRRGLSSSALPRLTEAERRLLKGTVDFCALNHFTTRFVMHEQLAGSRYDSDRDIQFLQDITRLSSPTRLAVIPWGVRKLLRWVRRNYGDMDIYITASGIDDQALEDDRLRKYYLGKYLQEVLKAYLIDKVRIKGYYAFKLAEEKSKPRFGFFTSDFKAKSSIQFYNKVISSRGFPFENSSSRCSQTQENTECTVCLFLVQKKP

T2: human FGFR1c-Fc (human, UniProt P11362 22-376)
T2 construct: also called huFGFR1c-Fc; huFGFR1c/Fc
T2 sequence: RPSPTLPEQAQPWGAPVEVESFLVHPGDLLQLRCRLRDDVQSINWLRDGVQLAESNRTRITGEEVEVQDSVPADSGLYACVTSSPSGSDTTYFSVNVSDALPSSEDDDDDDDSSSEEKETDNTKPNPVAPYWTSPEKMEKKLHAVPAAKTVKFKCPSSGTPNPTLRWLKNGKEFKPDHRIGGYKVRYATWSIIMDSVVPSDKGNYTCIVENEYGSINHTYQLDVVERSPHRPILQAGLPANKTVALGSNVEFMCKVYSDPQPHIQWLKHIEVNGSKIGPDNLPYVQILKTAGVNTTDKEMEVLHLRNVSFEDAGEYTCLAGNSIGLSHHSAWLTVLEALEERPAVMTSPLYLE

B1: β-Klotho-binding monomer LNR_M02 (designed binder)
chain: CPPHIEDHCERRDGDGVCQKPCDFYGCLWDGVNCDMDLVQELT
B2: β-Klotho-binding monomer LNR_M10 (designed binder)
chain: CPPHIEDHCERRDGDGVCQKPCDFYGCLWDGVDCDMDLVEELT
B3: β-Klotho-binding monomer LNR_M09 (designed binder)
chain: CMAYLLCKKYYGDGICRSECDTATCSWDGFDCPVNEIEDLT
B4: β-Klotho-binding monomer LNR_M12 (designed binder)
chain: CREYSMCTRFDGDGICHEQCGYPRCLWDGLDCANNFDHEVT
B5: β-Klotho-binding monomer LNR_M15 (designed binder)
chain: CNPLYDDHCAAFFGDGGCGPECSLAECLWDGGDCEEERDADVT
B6: β-Klotho-binding monomer LNR_M14 (designed binder)
chain: CHPLIREYCEKFFGDGGCDSGCNNSRCDWDGDDCGLIQHGDVT
B7: β-Klotho-binding monomer LNR_M16 (designed binder)
chain: CNPKYDAHCASYFGDGECDPACSLAECVWDGDDCDPNFLTDVT
B8: β-Klotho-binding monomer LNR_M05 (designed binder)
chain: CMAYNLCTALVGDGECDQECDTPTCNWDGGDCAVKSAPDST
B9: β-Klotho-binding monomer LNR_M11 (designed binder)
chain: CMAYNLCQALVGDGSCNSECDTETCGWDGMDCATVEGAEAT
B10: β-Klotho-binding monomer LNR_M01 (designed binder)
chain: CIAAKLCEALDGDGVCHKECDLEECDWDGGDCQRIFLTDPT
B11: β-Klotho-binding monomer LNR_M19 (designed binder)
chain: CNPVYDPYCAAFFGDGGCGPHCGLAECVWDGMDCDHKEVRELT
B12: β-Klotho-binding monomer LNR_M21 (designed binder)
chain: CHPLIREYCTHYDGDGECDKGCDSAKCKWDGDDCDMDVLAEVT
B13: β-Klotho-binding monomer LNR_M08 (designed binder)
chain: CIAAKLCERLDGDGSCQSECGNATCGWDGMDCDEKENDELT
B14: β-Klotho-binding monomer LNR_M06 (designed binder)
chain: CMEAKSCQARDGDGDCGQGCNLAECIWDGMDCRPEWIRELT
B15: β-Klotho-binding monomer LNR_M07 (designed binder)
chain: CLYQDCKEYYGDGNCSKGCNLAECLWDGGDCGTIFLADVT
B16: β-Klotho-binding monomer LNR_M13 (designed binder)
chain: CNPLYDPHCRSYFGDGDCGPGCDLAACLWDGGDCPGVAAAELT
B17: β-Klotho-binding monomer LNR_M03 (designed binder)
chain: CNPIIQHYCETYDGDGLCESACNFYGCAWDGFDCQVISDKDST
B18: β-Klotho-binding monomer LNR_M17 (designed binder)
chain: CPAHYGTHCEERDGDGKCHQGCDFATCDWDGMDCGMDLVRELT
B19: β-Klotho-binding monomer LNR_M04 (designed binder)
chain: CREYISCPNFYGDGRCQQDCNLAKCVWDGLDCADVWSEDLT
B20: β-Klotho-binding monomer LNR_M18 (designed binder)
chain: CNPPIGQYCTQLFGDGDCGPDCDLAECVWDGDDCDPVAVPDVT
B21: β-Klotho-binding monomer LNR_M20 (designed binder)
chain: CNPPIGQYCTQLFGDGDCGPECNLAECVWDGDDCDPVAVPELT
B22: FGFR1c-binding monomer M23mut10 (designed binder)
chain: CGANLFTCQSTNICISDAWVCDGVDDCEDNSDETTCSQDPEFHKV
notes: also called M23mutM10
B23: FGFR1c-binding monomer M23mut18 (designed binder)
chain: CGTNMFTCQRTNICISDAWVCDGVDDCEDYSDETACSQDPEFHKV
B24: FGFR1c-binding monomer M23mut16 (designed binder)
chain: CGSNLFTCRSTNICISPAWVCDGVDDCDDDSDETGCSQDPEFHKV
notes: also called M23mutM16
B25: FGFR1c-binding monomer M23mut11 (designed binder)
chain: CGANLFTCRSTNICISPAWVCDGVDDCEDYSDEIGCSQDPEFHKV
notes: also called M23mutM11
B26: FGFR1c-binding monomer M23mut12 (designed binder)
chain: CGANLFTCRSTNICISPTWVCDGVDDCDDNSDEIGCSQDLEFHKV
B27: FGFR1c-binding monomer M23mut15 (designed binder)
chain: CGSNLFTCRRTNICISKAWVCDGVDDCEDNSDETGCSQDPEFHKV
notes: also called M23mutM15
B28: FGFR1c-binding monomer M23mut13 (designed binder)
chain: CGPNLFTCRSTNICISRAWVCDGVDDCDDESDEQGCSQDPEFHKV
B29: FGFR1c-binding monomer M23mut14 (designed binder)
chain: CGSDMFTCRSTNICISKVWVCDGVDDCEDDSDERGCSQDPEFHKV
notes: also called M23mutM14
B30: β-Klotho-binding monomer M26 (designed binder)
chain: CVPNQFQCGSGRCLPHPLGCDGVDDCLDGSDEASCAPPT
B31: β-Klotho-binding monomer M34 (designed binder)
chain: CRSSEFPCHGYSTCISLSLLCDGVDDCADNSDEESCRAAGHT
B32: β-Klotho-binding monomer M27 (designed binder)
chain: CVSDEFPCRDNNICVLLHLLCDGVDDCLDSSDETGCAKPT
B33: β-Klotho-binding monomer M39 (designed binder)
chain: CSAFEFHCLSGECIHSSWRCDWDLDCKDHPDEVMCALEA
B34: β-Klotho-binding monomer M41 (designed binder)
chain: CSRAHFHCLSGECIHHHWRCDGGPDCKDKSDEENCPTKRPEEV
B35: β-Klotho-binding monomer M37 (designed binder)
chain: CSAFEFHCLSGECIHSSWRCDMDWDCKDQPDQLWCALET
B36: FGFR1c-binding monomer M08 (designed binder)
chain: CGAGQFTCRDTNICISRAWRCDGVDDCEDNSDEADCSQDPEFHKV
notes: also called R1cM08
B37: FGFR1c-binding monomer M26 (designed binder)
chain: CGSSQFTCHNTNICLPRARVCDGVDDCEDNSDEAGCGDSHILPFSTPGPST
B38: FGFR1c-binding monomer M29 (designed binder)
chain: CGSSQFTCHNTNICLPRAWVCDGVDDCEDNSDEKNCSAPASEPPGSL
B39: FGFR1c-binding monomer M31 (designed binder)
chain: CLSDQFTCRSTNICLPLQWVCDGDDDCEDNSDEEDCSAPASEPPGSL
notes: also called R1cM31
B40: FGFR1c-binding monomer M20 (designed binder)
chain: CGPNQFTCRSTNICLSQTWVCDGVDDCEDGSDETNCGRPGPGATSAPAA
B41: FGFR1c-binding monomer M33 (designed binder)
chain: CRLNEFPCGSGSCISLHWVCDSVPDCRDDSDETDCPERT
B42: FGFR1c-binding monomer M12 (designed binder)
chain: CGAGQFTCRSTNICLPLQWVCDGVDDCEDNSDEAGCGDSHILPFSTPGPST

target: T1, recombinant human β-Klotho; assay: phage panning

Q: Does B1 bind?
A: binds

Q: Does B2 bind?
A: binds

Q: Does B3 bind?
A: binds

Q: Does B4 bind?
A: binds

Q: Does B5 bind?
A: binds

Q: Does B6 bind?
A: binds

Q: Does B7 bind?
A: binds

Q: Does B8 bind?
A: binds

Q: Does B9 bind?
A: binds

Q: Does B10 bind?
A: binds

Q: Does B11 bind?
A: binds

Q: Does B12 bind?
A: binds

Q: Does B13 bind?
A: binds

Q: Does B14 bind?
A: binds

Q: Does B15 bind?
A: binds

Q: Does B16 bind?
A: binds

Q: Does B17 bind?
A: binds

Q: Does B18 bind?
A: binds

Q: Does B19 bind?
A: binds

Q: Does B20 bind?
A: binds

Q: Does B21 bind?
A: binds

target: T2, human FGFR1c-Fc; assay: phage panning

Q: Does B22 bind?
A: binds

Q: Does B23 bind?
A: binds

Q: Does B24 bind?
A: binds

Q: Does B25 bind?
A: binds

Q: Does B26 bind?
A: binds

Q: Does B27 bind?
A: binds

Q: Does B28 bind?
A: binds

Q: Does B29 bind?
A: binds

target: T1, recombinant human β-Klotho; assay: phage panning; remark: another data set of the same source

Q: Does B30 bind?
A: binds

Q: Does B31 bind?
A: binds

Q: Does B32 bind?
A: binds

Q: Does B33 bind?
A: binds

Q: Does B34 bind?
A: binds

Q: Does B35 bind?
A: binds

target: T2, human FGFR1c-Fc; assay: phage panning; remark: another data set of the same source

Q: Does B36 bind?
A: binds

Q: Does B37 bind?
A: binds

Q: Does B38 bind?
A: binds

Q: Does B39 bind?
A: binds

Q: Does B40 bind?
A: binds

Q: Does B41 bind?
A: binds

Q: Does B42 bind?
A: binds

Reference: US20130197191A1 (Amgen, published 2013)
